This note sets out measurements from publication PMC3792076, “Elucidation of Substrate Specificity in Aspergillus nidulans UDP-Galactose-4-Epimerase” (PLoS ONE, 2013).

Substrate in the data set: O=c1ccn([C@@H]2O[C@H](COP(=O)(O)OP(=O)(O)O[C@H]3O[C@H](CO)[C@H](O)[C@H](O)[C@H]3O)[C@@H](O)[C@H]2O)c(=O)[nH]1
Kind of data set: purified protein. In kind it is biochemical, Aspergillus nidulans. The note with it: 2 mM NAD+, 100 mM Tris-HCl pH 8.5, 25°C.

B1: AnGALE (Aspergillus nidulans FGSC A4) (protein)
chain: MPSGSVLVTGGTGYIGSFTTLALLEAGYKVVVADNLYNSSAEALNRIELISGKKAEFAQLDVTDEAAFDKVFEAHPDIDSVIHFAALKAVGESGEKPLDYYHVNVYGTICLLRSMVRHNVTNIVFSSSATVYGDATRFPDMIPIPEHCPLGPTNPYGNTKFAIELAITDVINAQRNNAKKAGNETEAAKWNGALLRYFNPAGAHPSGIMGEDPQGVPYNLLPLLAQVATGKREKLLVFGDDYASHDGTAIRDYIHILDLADGHLKALNYLRANNPGVRAWNLGTGRGSTVYEMIRAFSKAVGRDLPYEVAPRRAGDVLNLTSNPTRANTELGWKAQRTLEQACEDLWLWTKNNPQGYRQQPPAELLEQLKK
notes: N-terminal His-TEV tag (p-HIS-TEV-GALE), not cleaved for crystallization; E. coli BL21-Gold; homodimer
One may read the Km as the substrate concentration at which the rate is half of its maximum. A word on the kcat: it is the maximal rate divided by the concentration of active sites. By kcat/Km is commonly meant the second-order rate constant that governs catalysis at low substrate concentration. B1: the Michaelis-Menten constant (Km) amounted to 0.11 ± 0.01 mM, the kcat came to 12.8 ± 0.6 s⁻¹ and the kcat/Km was determined as 116000 ± 8100 M⁻¹ s⁻¹.

B2: AnGALE (Aspergillus nidulans FGSC A4; L320Y) (protein)
chain: MPSGSVLVTGGTGYIGSFTTLALLEAGYKVVVADNLYNSSAEALNRIELISGKKAEFAQLDVTDEAAFDKVFEAHPDIDSVIHFAALKAVGESGEKPLDYYHVNVYGTICLLRSMVRHNVTNIVFSSSATVYGDATRFPDMIPIPEHCPLGPTNPYGNTKFAIELAITDVINAQRNNAKKAGNETEAAKWNGALLRYFNPAGAHPSGIMGEDPQGVPYNLLPLLAQVATGKREKLLVFGDDYASHDGTAIRDYIHILDLADGHLKALNYLRANNPGVRAWNLGTGRGSTVYEMIRAFSKAVGRDLPYEVAPRRAGDVLNYTSNPTRANTELGWKAQRTLEQACEDLWLWTKNNPQGYRQQPPAELLEQLKK
notes: as for B1
B2: the Km amounted to 0.06 ± 0.01 mM, the turnover number (kcat) worked out at 1.5 ± 0.1 s⁻¹ and the catalytic efficiency (kcat/Km) turned out to be 26800 ± 1900 M⁻¹ s⁻¹.
